Assay results taken from patent EP4671273A1 (Anaveon AG, dated 2025).
Like-named read-outs stand apart in the source and are kept apart here.

Key:
Experiment in all cases: cell-based or functional assay
[1] = target: T1, human IL-21 receptor (IL-21R) on cells (human, UniProt Q9HBE5 20-538; P31785 23-369)
[2] = target: T1, human IL-21 receptor (IL-21R) on cells; remark: listed apart in the source
[3] = target: T1, human IL-21 receptor (IL-21R) on cells; remark: listed apart in the source

T1 sequence (Q9HBE5 20-538, chain 1 of 2): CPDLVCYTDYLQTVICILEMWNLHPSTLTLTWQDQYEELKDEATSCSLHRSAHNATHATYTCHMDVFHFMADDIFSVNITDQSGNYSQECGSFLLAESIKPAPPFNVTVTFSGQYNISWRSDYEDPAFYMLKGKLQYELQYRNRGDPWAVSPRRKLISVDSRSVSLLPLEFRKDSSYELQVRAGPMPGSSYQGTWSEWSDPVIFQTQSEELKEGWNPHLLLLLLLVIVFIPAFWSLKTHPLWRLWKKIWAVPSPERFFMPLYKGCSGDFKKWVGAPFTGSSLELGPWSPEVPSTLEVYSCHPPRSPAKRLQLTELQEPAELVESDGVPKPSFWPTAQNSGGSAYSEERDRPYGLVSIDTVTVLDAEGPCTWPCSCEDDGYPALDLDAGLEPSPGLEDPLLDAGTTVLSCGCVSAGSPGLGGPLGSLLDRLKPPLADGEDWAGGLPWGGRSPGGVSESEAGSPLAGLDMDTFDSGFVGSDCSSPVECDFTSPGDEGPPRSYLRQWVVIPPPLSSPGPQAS
T1 sequence (P31785 23-369, chain 2 of 2): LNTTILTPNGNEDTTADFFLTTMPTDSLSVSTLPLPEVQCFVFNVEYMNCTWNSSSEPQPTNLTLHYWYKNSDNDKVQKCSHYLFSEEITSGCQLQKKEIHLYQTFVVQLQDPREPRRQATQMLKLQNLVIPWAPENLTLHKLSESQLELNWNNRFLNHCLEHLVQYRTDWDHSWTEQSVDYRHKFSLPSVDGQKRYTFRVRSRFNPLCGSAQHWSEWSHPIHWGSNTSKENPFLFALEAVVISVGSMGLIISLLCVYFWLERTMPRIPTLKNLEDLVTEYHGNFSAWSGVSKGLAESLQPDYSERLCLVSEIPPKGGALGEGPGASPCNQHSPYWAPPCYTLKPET

Δ [1]	EC50B, pSTAT3+ Jurkat PD-1 cells, PD-1 blocked [2] [nM]	EC50NB, pSTAT3+ Jurkat PD-1 cells [2] [nM]	EC50B, pSTAT3+ Jurkat PD-1 cells, PD-1 blocked [3] [nM]	EC50NB, pSTAT3+ Jurkat PD-1 cells [3] [nM]	Binder
3.45	0.526	0.004	–	–	YWW798 (bispecific antibody, human IgG1, kappa, lambda, L234A L235A) heavy 1: EVQLLESGGGLVQPGGSLRLSCAASGFTFSINAMTWVRQAPGKGLEWVSTISGSGFSTYYADSLKGRFTISRDNSKNTLYLQMNSLRAEDTAVYYCAKEVYGDYWGQGTLVTVSSASTKGPSVFPLAPSSKSTSGGTAALGCLVKDYFPEPVTVSWNSGALTSGVHTFPAVLQSSGLYSLSSVVTVPSSSLGTQTYICNVNHKPSNTKVDKRVEPKSCDKTHTCPPCPAPEAAGGPSVFLFPPKPKDTLMISRTPEVTCVVVDVSHEDPEVKFNWYVDGVEVHNAKTKPREEQYNSTYRVVSVLTVLHQDWLNGKEYKCKVSNKALAAPIEKTISKAKGQPREPQVCTLPPSREEMTKNQVSLSCAVKGFYPSDIAVEWESNGQPENNYKTTPPVLDSDGSFFLVSKLTVDKSRWQQGNVFSCSVMHEALHNHYTQKSLSLSPGK light 1: not shown heavy 2: QVQLQESGPGLVKPSETLSLTCTVSGGSISSDYWGWIRQPPGKGLEWIGYISYSGSTNYNPSLKSRVTISVDTSRNQFSLKLSSVTAADTAVYYCARSAGVTDFDAWGQGTLVTVSSASTKGPSVFPLAPSSKSTSGGTAALGCLVKDYFPEPVTVSWNSGALTSGVHTFPAVLQSSGLYSLSSVVTVPSSSLGTQTYICNVNHKPSNTKVDKRVEPKSCDKTHTCPPCPAPEAAGGPSVFLFPPKPKDTLMISRTPEVTCVVVDVSHEDPEVKFNWYVDGVEVHNAKTKPREEQYNSTYRVVSVLTVLHQDWLNGKEYKCKVSNKALAAPIEKTISKAKGQPREPQVYTLPPCREEMTKNQVSLWCLVKGFYPSDIAVEWESNGQPENNYKTTPPVLDSDGSFFLYSKLTVDKSRWQQGNVFSCSVMHEALHNHYTQKSLSLSPGK light 2: not shown
2.79	–	–	12.4	0.17	DMT806 (bispecific antibody, human IgG1, kappa, lambda, L234A L235A) heavy 1: EVQLLESGGGLVQPGGSLRLSCAASGFTFSINAMTWVRQAPGKGLEWVSTISGSGFSTYYADSLKGRFTISRDNSKNTLYLQMNSLRAEDTAVYYCAKEVYGDYWGQGTLVTVSSASTKGPSVFPLAPSSKSTSGGTAALGCLVKDYFPEPVTVSWNSGALTSGVHTFPAVLQSSGLYSLSSVVTVPSSSLGTQTYICNVNHKPSNTKVDKRVEPKSCDKTHTCPPCPAPEAAGGPSVFLFPPKPKDTLMISRTPEVTCVVVDVSHEDPEVKFNWYVDGVEVHNAKTKPREEQYNSTYRVVSVLTVLHQDWLNGKEYKCKVSNKALAAPIEKTISKAKGQPREPQVCTLPPSREEMTKNQVSLSCAVKGFYPSDIAVEWESNGQPENNYKTTPPVLDSDGSFFLVSKLTVDKSRWQQGNVFSCSVMHEALHNHYTQKSLSLSPGK light 1: not shown heavy 2: not shown light 2: DIQMTQSPSSVSASVGDRVTITCRASQGISSWLAWYQHKPGKAPKLLIYVASSLQSGVPSRFSGSGSGTDFTLTISSLQPEDFATYYCQQANSFPLTFGGGTKVEIKRTVAAPSVFIFPPSDEQLKSGTASVVCLLNNFYPREAKVQWKVDNALQSGNSQESVTEQDSKDSTYSLSSTLTLSKADYEKHKVYACEVTHQGLSSPVTKSFNRGEC
